Where a chain is given by its changes, count along the chain named. Numbers in names are those of the source.
T1: mouse FcγRII extracellular domain, C-terminal His tag (mouse, UniProt P08101 30-210)
T1 construct: Whole entry named; also called mFcγRII; mFcgRII
T1 sequence: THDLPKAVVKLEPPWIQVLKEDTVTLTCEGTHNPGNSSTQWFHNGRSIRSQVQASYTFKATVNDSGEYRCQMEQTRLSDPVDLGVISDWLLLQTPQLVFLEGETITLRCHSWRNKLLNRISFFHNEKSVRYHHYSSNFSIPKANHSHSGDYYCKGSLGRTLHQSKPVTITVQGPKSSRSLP

T2: mouse FcγRIII extracellular domain, C-terminal His tag (mouse, UniProt P08508 31-215)
T2 construct: Whole entry named; also called mFcγRIII; mFcgRIII
T2 chain: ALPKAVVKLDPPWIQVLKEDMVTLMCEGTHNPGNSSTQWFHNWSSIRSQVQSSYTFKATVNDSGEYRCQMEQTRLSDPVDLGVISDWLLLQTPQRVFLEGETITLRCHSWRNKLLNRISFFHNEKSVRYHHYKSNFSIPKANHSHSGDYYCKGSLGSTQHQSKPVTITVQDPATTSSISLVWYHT

T3: mouse FcγRII (mouse, UniProt P08101 30-210)
T3 construct: Extracellular domain with C-terminal His tag, made in FreeStyle 293 cells; also called mFcγRII; mFcgRII
T3 sequence: T1 sequence

T4: mouse FcγRIII (mouse, UniProt P08508 31-215)
T4 construct: Extracellular domain with C-terminal His tag, made in FreeStyle 293 cells; also called mFcγRIII; mFcgRIII
T4 chain: T2 chain

B1: H237-MB628/MRAL-k0 (antibody)
heavy: QVQLQESGPGLVKPSETLSLTCAVSGHSISHDHAWSWVRQPPGEGLEWIGFISYSGITNYNPSLQGRVTISRDNSKNTLYLQMNSLRAEDTAVYYCARSLARTTAMDYWGEGTLVTVSSAKTTPPSVYPLAPGSAAQTNSMVTLGCLVKGYFPEPVTVTWNSGSLSSGVHTFPAVLQSDLYTLSSSVTVPSSTWPSETVTCNVAHPASSTKVDKKIVPRDCGCKPCICEPAEVELVFIFPPKPKDVLTITLTPKVTCVVVDISKDDPEVQFSWFVDDVEVHTAQTQPREEQFNSTFRSVSELPIMHQDWLNGKEFKCRVNSAAFPAPIEKTISKTKGRPKAPQVYTIPPPKEQMAKDKVSLTCMITDFFPEDITVEWQWNGQPAENYKNTQPIMDTDGSYFVYSKLNVQKSNWEAGNTFTCSVLHEGLHNHHTEKSLSHSPGK
light: not shown
notes: copies: 2 + 2
B2: H237-MB632/MRAL-k0 (antibody, mouse IgG1, kappa)
heavy: B1 heavy with P230A, A231Y, L235N
light: not shown
notes: copies: 2 + 2
B3: H237-MB687/MRAL-k0 (antibody)
heavy: B1 heavy with A231P
light: not shown
notes: copies: 2 + 2
B4: H237-MB646/MRAL-k0 (antibody, mouse IgG1, kappa)
heavy: B1 heavy with L235Y
light: not shown
notes: copies: 2 + 2
B5: H237-MB688/MRAL-k0 (antibody, mouse IgG1, kappa)
heavy: B1 heavy with E229T, P230V, A231Y, L235N
light: not shown
notes: copies: 2 + 2
B6: H237-MB657/MRAL-k0 (antibody, mouse IgG1, kappa)
heavy: B1 heavy with A231N, L235F
light: not shown
notes: copies: 2 + 2
B7: H237-MB642/MRAL-k0 (antibody, mouse IgG1, kappa)
heavy: B1 heavy with P230D, A231Y, L235Y
light: not shown
notes: copies: 2 + 2
B8: H237-MB686/MRAL-k0 (antibody, mouse IgG1, kappa)
heavy: B1 heavy with P230V
light: not shown
notes: copies: 2 + 2
B9: H237-MB636/MRAL-k0 (antibody, mouse IgG1, kappa)
heavy: B1 heavy with P230V, A231Y, L235N
light: not shown
notes: copies: 2 + 2
B10: H237-MB685/MRAL-k0 (antibody, mouse IgG1, kappa)
heavy: B1 heavy with E229T
light: not shown
notes: copies: 2 + 2
B11: H237-MB645/MRAL-k0 (antibody, mouse IgG1, kappa)
heavy: B1 heavy with P230V, A231Y, L235Y
light: not shown
notes: copies: 2 + 2
B12: H237-MB690/MRAL-k0 (antibody, mouse IgG1, kappa)
heavy: B1 heavy with E229T, L235Y
light: not shown
notes: copies: 2 + 2
B13: H237-MB718/MRAL-k0 (antibody, mouse IgG1, kappa)
heavy: B1 heavy with A231N, L235T
light: not shown
notes: copies: 2 + 2
B14: H237-MB793/MRAL-k0 (antibody)
heavy: B1 heavy with E229Q, A231N, L235I
light: not shown
notes: 'S2391' in r30c2 read as S239I; copies: 2 + 2
B15: H237-MB731/MRAL-k0 (antibody, mouse IgG1, kappa)
heavy: B1 heavy with V233E
light: not shown
notes: copies: 2 + 2
B16: H237-MB693/MRAL-k0 (antibody, mouse IgG1, kappa)
heavy: B1 heavy with E229T, P230D, A231Y, L235Y
light: not shown
notes: copies: 2 + 2
B17: H237-MB694/MRAL-k0 (antibody, mouse IgG1, kappa)
heavy: B1 heavy with P230D, A231P, L235Y
light: not shown
notes: copies: 2 + 2
B18: H237-MB702/MRAL-k0 (antibody, mouse IgG1, kappa)
heavy: B1 heavy with E229T, P230A, A231Y, L235N
light: not shown
notes: copies: 2 + 2
B19: H237-MB692/MRAL-k0 (antibody, mouse IgG1, kappa)
heavy: B1 heavy with A231P, L235Y
light: not shown
notes: copies: 2 + 2
B20: H237-MB715/MRAL-k0 (antibody, mouse IgG1, kappa)
heavy: B1 heavy with A231N, L235V
light: not shown
notes: copies: 2 + 2
B21: H237-MB886/MRAL-k0 (antibody, mouse IgG1, kappa)
heavy: B1 heavy with A231N, V233E, L235S
light: not shown
notes: copies: 2 + 2
B22: H237-MB709/MRAL-k0 (antibody, mouse IgG1, kappa)
heavy: B1 heavy with L235T
light: not shown
notes: copies: 2 + 2
B23: H237-MB685/MRAL-k0 (antibody, mouse IgG1, kappa)
heavy: B1 heavy with E229T
light: not shown
notes: copies: 2 + 2
B24: H237-MB732/MRAL-k0 (antibody, mouse IgG1, kappa)
heavy: B1 heavy with A231N, V233E
light: not shown
notes: copies: 2 + 2
B25: H237-MB700/MRAL-k0 (antibody, mouse IgG1, kappa)
heavy: B1 heavy with P230V, A231P, V233E, L235Y
light: not shown
notes: copies: 2 + 2
B26: H237-MB691/MRAL-k0 (antibody, mouse IgG1, kappa)
heavy: B1 heavy with P230V, L235Y
light: not shown
notes: copies: 2 + 2
B27: H237-MB703/MRAL-k0 (antibody, mouse IgG1, kappa)
heavy: B1 heavy with P230A, A231P, L235N
light: not shown
notes: copies: 2 + 2
B28: H237-MB688/MRAL-k0 (antibody, mouse IgG1, kappa)
heavy: B1 heavy with E229T, P230V, A231Y, L235N
light: not shown
notes: copies: 2 + 2
B29: H237-MB717/MRAL-k0 (antibody, mouse IgG1, kappa)
heavy: B1 heavy with A231N, L235P
light: not shown
notes: copies: 2 + 2

Target: T1, mouse FcγRII extracellular domain, …
Assay: SPR (Biacore T200); KD of H237-mIgG1/MRAL-k0 / KD of variant
Source text: (§1) The antibody H chain variable region used was the variable region H237 (SEQ ID NO: 1) of the H chain VH3-IgG1 of the anti-IL-6 receptor antibody Fv4-IgG1 described in WO2009/125825. The antibody L chain commonly used was the L chain MRAL-k0 (SEQ ID NO: 2) of the anti-IL-6 receptor antibody tocilizumab. The aforementioned 7 variants were used as templates to substitute the amino acids at the alteration sites by the amino acids before the alteration. These variants were expressed and purified by the method of Reference Example 1 and evaluated for their binding to mFcγRII and mFcγRIII by the method of Reference Example 2 using Biacore T200.
(§2) Each altered antibody was analyzed for its interaction with each Fcγ receptor prepared above using Biacore T100 (GE Healthcare Japan Corp.), Biacore T200 (GE Healthcare Japan Corp.), Biacore A100, or Biacore 4000. The running buffer used was HBS-EP+ (GE Healthcare Japan Corp.). The assay temperature was set to 25° C. The sensor chips used were chips prepared by immobilizing Protein L (ACTIGEN or BioVision) onto Series S Sensor Chip CM5 (GE Healthcare Japan Corp.) or Series S Sensor Chip CM4 (GE Healthcare Japan Corp.) by the amine coupling method.

Row | relative mFcγRII-binding activity (mIgG1 = 1) [fold] | Binder
1 | 2.09 | B1
2 | 3.72 | B2
3 | 0.943 | B3
4 | 3.8 | B4
5 | 0.634 | B5
6 | 1.54 | B6
7 | 1.65 | B7
8 | 0.167 | B8
9 | 3.92 | B9
10 | 0.606 | B10
11 | 1.06 | B11

Target: T2, mouse FcγRIII extracellular domain, …
Assay: as above
Source text: as §1, §2

Row | relative mFcγRIII-binding activity (mIgG1 = 1) [fold] | Binder
12 | 0.083 | B1
13 | 0.236 | B2
14 | 0.096 | B3
15 | 0.176 | B4
16 | 0.081 | B5
17 | 0.087 | B6
18 | 0.1 | B7
19 | 0.052 | B8
20 | 0.172 | B9
21 | 0.093 | B10
22 | 0.217 | B11

Target: T3, mouse FcγRII
Assay: SPR (Biacore), KD of H237-mIgG1/MRAL-k0 (same run) / KD of variant

Row | relative mFcγRII-binding activity (mIgG1 = 1) [fold] | Binder
23 | 1.6 | B12
24 | 1.08 | B13
25 | 1.37 | B14
26 | 1.13 | B15
27 | 1.22 | B16
28 | 0.54 | B17
29 | 0.96 | B18
30 | 1.75 | B19
31 | 1.14 | B20
32 | 1.47 | B21
33 | 0.78 | B22
34 | 0.61 | B23
35 | 0.84 | B24
36 | 0.56 | B25
37 | 0.58 | B26
38 | 0.94 | B27
39 | 0.63 | B28
40 | 0.52 | B29

Target: T4, mouse FcγRIII
Assay: as above

Row | relative mFcγRIII-binding activity (mIgG1 = 1) [fold] | Binder
41 | 0.19 | B12
42 | 0.08 | B13
43 | 0.07 | B14
44 | 0.03 | B15
45 | 0.09 | B16
46 | 0.03 | B17
47 | 0.14 | B18
48 | 0.12 | B19
49 | 0.04 | B20
50 | 0.08 | B21
51 | 0.06 | B22
52 | 0.09 | B23
53 | 0.03 | B24
54 | 0.04 | B25
55 | 0.07 | B26
56 | 0.1 | B27
57 | 0.08 | B28
58 | 0.05 | B29

Target: T3, mouse FcγRII
Assay: SPR (Biacore), antibody captured on Protein L

Row | Kd [nM] | Binder
59 | 204 | B12
60 | 247 | B13
61 | 179 | B14
62 | 238 | B15
63 | 267 | B16
64 | 598 | B17
65 | 339 | B18
66 | 186 | B19
67 | 236 | B20
68 | 246 | B21
69 | 345 | B22
70 | 537 | B23
71 | 321 | B24
72 | 582 | B25
73 | 559 | B26
74 | 345 | B27
75 | 513 | B28
76 | 514 | B29

Target: T4, mouse FcγRIII
Assay: SPR (Biacore), antibody captured on Protein L

Row | Kd [nM] | Binder
77 | 2710 | B12
78 | 5560 | B13
79 | 5500 | B14
80 | 15300 | B15
81 | 5410 | B16
82 | 16400 | B17
83 | 3520 | B18
84 | 4440 | B19
85 | 11900 | B20
86 | 7220 | B21
87 | 7690 | B22
88 | 5490 | B23
89 | 13700 | B24
90 | 11600 | B25
91 | 7180 | B26
92 | 4900 | B27
93 | 6300 | B28
94 | 8620 | B29
